Here are results for 4 molecules from PMC4370504, “Structural Basis for Ubiquitin Recognition by Ubiquitin-Binding Zinc Finger of FAAP20” (PLoS ONE, 2015).

Holding throughout (assay): SPR; Biacore T200, Sensor Chip C1; GST-fused Ub or Ub2 captured by immobilised anti-GST antibodies (200-400 RU); FAAP20-UBZ injected 60 s at 10 uL/min; 25°C, HBS-P (10 mM HEPES-Na pH 7.4, 150 mM NaCl, 0.05% surfactant P20); equilibrium fit, 1:1 model; triplicate
Common to all, as to conditions: both partners purified

Assay [1] addresses T1, GST-fused K63-linked diubiquitin (K63-Ub2) (UniProt P0CG48 1-76; P0CG48 1-76, K63R | additional aspartate residue at its C-terminal extremity (D77), K63-linked to the other Ub chain | K63-linked to the other Ub chain).
T1 construct: ubiquitin carrying the K63R mutation, GST-fused; ubiquitin with an additional aspartate residue at its C-terminal extremity (D77 Ub); Surmised: Gly76 of GST-K63R Ub (distal) is joined by an isopeptide bond to Lys63 of D77 Ub (proximal); also called K63-linked Ub2; GST-fused K63-Ub2

Assay [2] has as its target T2, GST-fused M1-linked diubiquitin (M1-Ub2) (UniProt P0CG48 1-76; P0CG48 1-76).
T2 construct: ubiquitin, first (distal) moiety of the M1-linked (linear, head-to-tail) diubiquitin; ubiquitin, second (proximal) moiety, its Met1 joined to Gly76 of the first; Written as one chain of two ubiquitins, as M1-linked; also called M1-linked Ub2; GST-fused M1-Ub2; source: purified (Glutathione Sepharose FF, ResourceQ)

In assay [3] the target is T3, GST-fused K48-linked diubiquitin (K48-Ub2) (UniProt P0CG48 1-76; P0CG48 1-76, K48R | additional aspartate residue at its C-terminal extremity (D77), K48-linked to the other Ub chain | K48-linked to the other Ub chain).
T3 construct: ubiquitin carrying the K48R mutation, GST-fused; ubiquitin with an additional aspartate residue at its C-terminal extremity (D77 Ub); Surmised: Gly76 of GST-Ub K48R (distal) is joined by an isopeptide bond to Lys48 of D77 Ub (proximal); also called K48-linked Ub2; GST-fused K48-Ub2

In assay [4] the target is T1, GST-fused K63-linked diubiquitin …. This is another data set of the same source.
The target in assay [5] is T4, GST-fused ubiquitin (Ub) (UniProt P0CG48 1-76).
T4 construct: ubiquitin (Ub), the mature product of a ubiquitin precursor; Captured on the chip by anti-GST antibodies; source: purified (Glutathione Sepharose FF, ResourceQ)

Assay [6] has as its target T4, GST-fused ubiquitin (Ub). The source holds these as a separate data set.

B1: FAAP20-UBZ (UBZ domain of FAAP20, residues 142-180), wild type (domain or fragment, human, UniProt Q6NZ36 142-180, looked up)
chain: AALRSCPMCQKEFAPRLTQLDVDSHLAQCLAESTEDVTW
notes: also called FAAP20-UBZ(wt); WT; source: E. coli Rosetta (DE3), purified (Glutathione Sepharose FF, ResourceQ, HRV3C cleavage, Superdex75); not shown: GST, N-terminal, cleaved
On to B1, for which the “stoichiometry N” value in assay [1] came out at 2. Moreover, the dissociation constant (Kd) in assay [2] stood at 22.3 µM; in assay [3], 39.1 µM; in assay [4] it was 35.9 µM; with GST-fused ubiquitin (Ub) [5] it was 19.9 µM.

B2: FAAP20-UBZ L161A (domain or fragment, human, UniProt Q6NZ36 142-180, looked up)
chain: AALRSCPMCQKEFAPRLTQADVDSHLAQCLAESTEDVTW
notes: human FAAP20, UBZ domain, residues 142-180; source: purified similarly to wild-type FAAP20-UBZ (E. coli Rosetta (DE3)); not shown: GST, N-terminal, cleaved
Molecule B2 yielded an equilibrium dissociation constant (Kd) with GST-fused ubiquitin (Ub) [6] of 125 µM.

B3: FAAP20-UBZ D177A (domain or fragment, human, UniProt Q6NZ36 142-180, looked up)
chain: AALRSCPMCQKEFAPRLTQLDVDSHLAQCLAESTEAVTW
notes: as for B2
Turning to B3, the Kd with GST-fused ubiquitin (Ub) [6] was determined as 218 µM.

B4: FAAP20-UBZ A172L (domain or fragment, human, UniProt Q6NZ36 142-180, looked up)
chain: AALRSCPMCQKEFAPRLTQLDVDSHLAQCLLESTEDVTW
notes: as for B2
Turning to B4, the Kd with GST-fused ubiquitin (Ub) [6] was 113 µM.
